These results are taken from US20080260812A1 (TAKAMI MATSUYAMA C O KAGOSHIMA UNIVERSITY, published 2008).

In experiment [1] the target is T1, folate receptor beta (FR-β) (human, UniProt P14207 17-230).
T1 construct: whole, on cells; also called FR-β antigen; human FR-β antigen
The experiment in a line: flow cytometry on FR-β gene-transfected B300-19 cells.
Method: Using a mixture of 20 μl of lipofectamine (Gibco BRL), 1 μg of the purified pEF vector insert, and 1 ml of a Hank's balanced salt solution, the FR-β gene was transfected into B300-19 cells which were previously prepared at 1×10⁵ in 24 wells. […] Namely, 5×10⁵ B3001-9 cells were reacted with 0.1 ml of the FR-β antibody (1 mg/ml) at 4° C. for 30 minutes. The cells were washed 3 times with PBS containing 0.1% NaN₃ and 10% fetal calf serum, after which they were reacted with a fluorescence-labeled goat anti-mouse Ig antibody (BIOSOURCE) at 4° C. for 30 minutes. Then, the cells were washed twice with PBS containing 0.1% NaN₃ and 1% fetal calf serum, after which fluorescence of the cells was assayed using EPICS Elite (Coulter).

The target of experiment [2] is T2, folate receptor alpha (FR-α) (UniProt P15328 25-234, limits assumed).
T2 construct: whole, on cells
The experiment can be described thus: flow cytometry on KB cells, fluorescence-labeled anti-mouse Ig.

T2 sequence (P15328 25-234 limits assumed): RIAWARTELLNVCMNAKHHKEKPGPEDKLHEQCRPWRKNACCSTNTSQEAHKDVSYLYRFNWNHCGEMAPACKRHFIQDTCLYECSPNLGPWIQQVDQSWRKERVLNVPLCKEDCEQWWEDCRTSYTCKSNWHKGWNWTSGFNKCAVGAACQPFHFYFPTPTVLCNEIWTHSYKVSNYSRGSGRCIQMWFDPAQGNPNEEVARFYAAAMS
T1 sequence (P14207 17-230): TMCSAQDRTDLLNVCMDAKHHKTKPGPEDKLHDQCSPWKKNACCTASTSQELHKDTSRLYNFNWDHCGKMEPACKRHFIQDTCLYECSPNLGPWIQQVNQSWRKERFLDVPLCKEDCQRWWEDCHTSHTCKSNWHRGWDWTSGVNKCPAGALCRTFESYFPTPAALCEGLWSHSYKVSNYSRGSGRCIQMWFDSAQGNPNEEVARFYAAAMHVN

B1: IgG-type FR-β monoclonal antibody clone 94b (antibody, V domains shown)
VH: EVQLQQSGAELVKPGASVRLSCTASGFNIKDTYMYWVKQRPEQGLEWIGRLDPANGNTRYDPKFQGKATITSDTSSNTAYLQLSSLTSEDTAVYYCAGDYPIIDYWGQGTTLTVSS
VL: DIVMSQSPSSLAVSAGEKVTMSCKSSQSLLNSRTRKTYLAWYQQKPGQSPKLLIYWASTRESGVPDRFTGSGSGTEFTLTISSVQAEDLAVYYCKQSYNLWTFGGGTKLEIKR
As for B1, the binding result in experiment [1] is “binds”; in experiment [2], “no binding”.

B2: IgG-type FR-β monoclonal antibody clone 36 (antibody, V domains shown)
VH: QVQLQQSGAELMKPGASLKISCKATGYTFSSYWIEWVKQRPGHGLQWIGEILPGSGSSNYNEKFKGKATFTADTSSNTAYMQLSSLTSEDSAVYYCARRGSSGSYFAMDYWGQGTSVTVSS
VL: DIQMTQSSSSFSVSLGDRVTITCKASEDIYNRLAWYQQKPGNAPRLLISGATSLETGVPLRFSGSGSGKDYTLSITSLQTEDIATYYCQQYWSTPWTFGGGTKLEIK
notes: also called clone 36 antibody; IgG monoclonal antibody against a human FR-β antigen (clone 36)
For B2, in experiment [2], the binding result is recorded as “no binding”.
